Tests used:
Assay in all cases: SPOT array
Abp1, P15891 = target: T1, Abp1, P15891; conditions: median of control spots 935
T1 sequence (P15891 535-592, looked up): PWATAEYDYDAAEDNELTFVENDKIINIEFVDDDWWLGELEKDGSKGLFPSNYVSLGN

Bbc1, P47068 = target: T2, Bbc1, P47068; conditions: median of control spots 796
T2 sequence (P47068 1-78, looked up): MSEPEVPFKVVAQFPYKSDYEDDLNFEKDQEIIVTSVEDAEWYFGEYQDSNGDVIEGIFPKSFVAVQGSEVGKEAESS

Bem1-1, P29366 = conditions: median of control spots 4282
Bem1-2, P29366 = conditions: median of control spots 4347
Boi1, P38041 = target: T3, Boi1, P38041; conditions: median of control spots 1162
T3 sequence (P38041 1-86, looked up): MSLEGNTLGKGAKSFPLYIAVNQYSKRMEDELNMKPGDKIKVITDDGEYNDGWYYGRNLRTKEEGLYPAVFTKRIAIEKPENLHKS

Boi2, P39969 = target: T4, Boi2, P39969; conditions: median of control spots 1161
T4 sequence (P39969 32-116, looked up): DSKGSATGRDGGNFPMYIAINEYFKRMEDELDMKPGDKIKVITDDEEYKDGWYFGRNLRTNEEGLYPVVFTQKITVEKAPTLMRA

Bud14, P27637 = target: T5, Bud14, P27637; conditions: median of control spots 956
T5 sequence (P27637 247-328, looked up): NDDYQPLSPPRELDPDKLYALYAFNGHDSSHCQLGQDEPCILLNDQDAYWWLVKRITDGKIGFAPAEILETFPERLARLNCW

Bzz1-1, P38822 = target: T6, Bzz1-1, P38822; conditions: median of control spots 4446
T6 sequence (P38822 478-572, looked up): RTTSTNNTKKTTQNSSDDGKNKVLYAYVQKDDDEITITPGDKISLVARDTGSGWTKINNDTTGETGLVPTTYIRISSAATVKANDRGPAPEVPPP

Bzz1-2, P38822 = target: T7, Bzz1-2, P38822; conditions: median of control spots 4538
T7 sequence (P38822 568-633, looked up): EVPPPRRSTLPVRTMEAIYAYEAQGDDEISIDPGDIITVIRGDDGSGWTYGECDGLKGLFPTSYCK

Cdc25, P04821 = target: T8, Cdc25, P04821; conditions: median of control spots 969
T8 sequence (P04821 50-136, looked up): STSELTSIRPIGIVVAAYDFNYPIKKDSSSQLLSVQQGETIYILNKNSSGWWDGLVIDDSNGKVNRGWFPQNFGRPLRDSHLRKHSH

Cyk3, Q07533 = target: T9, Cyk3, Q07533; conditions: median of control spots 1451
T9 sequence (Q07533 1-83, looked up): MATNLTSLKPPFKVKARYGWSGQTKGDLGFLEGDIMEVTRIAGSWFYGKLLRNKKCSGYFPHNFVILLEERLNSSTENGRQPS

Fus1, P11710 = target: T10, Fus1, P11710; conditions: median of control spots 1200
T10 sequence (P11710 432-512, looked up): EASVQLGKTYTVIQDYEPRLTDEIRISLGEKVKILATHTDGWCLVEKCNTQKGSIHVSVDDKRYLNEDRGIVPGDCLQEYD

GST = conditions: median of control spots 978
Hof1, Q05080 = target: T11, Hof1, Q05080; conditions: median of control spots 4086
T11 sequence (Q05080 590-669, looked up): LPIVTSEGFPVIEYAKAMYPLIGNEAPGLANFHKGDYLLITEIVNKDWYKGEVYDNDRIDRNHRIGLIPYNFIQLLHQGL

Hse1, P38753 = target: T12, Hse1, P38753; conditions: median of control spots 1727
T12 sequence (P38753 208-285, looked up): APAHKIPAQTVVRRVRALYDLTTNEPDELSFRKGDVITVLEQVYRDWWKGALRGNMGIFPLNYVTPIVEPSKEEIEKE

Lsb1, P53281 = target: T13, Lsb1, P53281; conditions: median of control spots 388
T13 sequence (P53281 45-122, looked up): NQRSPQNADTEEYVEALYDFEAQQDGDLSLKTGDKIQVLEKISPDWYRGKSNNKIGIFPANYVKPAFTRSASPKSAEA

Lsb3, P43603 = target: T14, Lsb3, P43603; conditions: median of control spots 406
T14 sequence (P43603 385-451, looked up): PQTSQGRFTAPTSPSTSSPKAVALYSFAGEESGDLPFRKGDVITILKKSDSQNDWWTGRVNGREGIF

Lsb4, P32793 = target: T15, Lsb4, P32793; conditions: median of control spots 397
T15 sequence (P32793 402-468, looked up): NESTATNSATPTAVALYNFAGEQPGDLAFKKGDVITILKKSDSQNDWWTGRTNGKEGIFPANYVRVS

Myo3, P36006 = conditions: median of control spots 468
Myo5, Q04439 = target: T16, Myo5, Q04439; conditions: median of control spots 471
T16 sequence (Q04439 1072-1160, looked up): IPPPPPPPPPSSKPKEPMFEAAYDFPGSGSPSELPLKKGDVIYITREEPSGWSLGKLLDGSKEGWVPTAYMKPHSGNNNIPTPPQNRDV

Nbp2, Q12163 = target: T17, Nbp2, Q12163; conditions: median of control spots 357
T17 sequence (Q12163 103-180, looked up): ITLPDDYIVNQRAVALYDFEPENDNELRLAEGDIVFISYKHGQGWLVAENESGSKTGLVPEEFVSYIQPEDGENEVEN

Pex13, P80667 = target: T18, Pex13, P80667; conditions: median of control spots 1341
T18 sequence (P80667 295-386, looked up): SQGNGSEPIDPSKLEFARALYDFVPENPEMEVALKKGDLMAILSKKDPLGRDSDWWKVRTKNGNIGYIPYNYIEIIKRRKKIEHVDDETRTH

Pin3, Q06449 = target: T19, Pin3, Q06449; conditions: median of control spots 2171
T19 sequence (Q06449 53-122, looked up): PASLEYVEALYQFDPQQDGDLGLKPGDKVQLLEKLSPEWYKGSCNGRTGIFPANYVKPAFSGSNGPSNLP

Rvs167, P39743 = conditions: median of control spots 2707
Sho1, P40073 = conditions: median of control spots 1148
Sla1-2, P32790 = target: T20, Sla1-2, P32790; conditions: median of control spots 712
T20 sequence (P32790 60-140, looked up): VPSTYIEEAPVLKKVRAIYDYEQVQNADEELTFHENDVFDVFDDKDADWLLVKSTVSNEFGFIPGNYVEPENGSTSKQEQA

Sla1-3, P32790 = target: T21, Sla1-3, P32790; conditions: median of control spots 5475
T21 sequence (P32790 344-424, looked up): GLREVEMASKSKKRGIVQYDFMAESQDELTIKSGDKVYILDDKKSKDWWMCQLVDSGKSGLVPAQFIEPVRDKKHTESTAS

Sequence of Rvs167, P39743 (P39743 419-482): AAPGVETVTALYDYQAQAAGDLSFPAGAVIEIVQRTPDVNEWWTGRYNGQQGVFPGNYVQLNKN
Sequence of Sho1, P40073 (P40073 287-367): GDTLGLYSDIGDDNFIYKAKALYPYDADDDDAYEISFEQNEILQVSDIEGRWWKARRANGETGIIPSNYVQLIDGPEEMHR
Sequence of Bem1-2, P29366 (P29366 139-227): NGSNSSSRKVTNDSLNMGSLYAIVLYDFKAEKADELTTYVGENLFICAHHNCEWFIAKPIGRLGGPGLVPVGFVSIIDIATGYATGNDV
Sequence of Bem1-1, P29366 (P29366 55-141): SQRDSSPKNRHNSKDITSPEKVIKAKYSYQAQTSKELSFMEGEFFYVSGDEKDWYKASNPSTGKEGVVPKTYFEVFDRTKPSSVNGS

Binder | SPOT intensity (Abp1, P15891) | SPOT intensity (Bbc1, P47068) | SPOT intensity (Bem1-1, P29366) | SPOT intensity (Bem1-2, P29366) | SPOT intensity (Boi1, P38041) | SPOT intensity (Boi2, P39969) | SPOT intensity (Bud14, P27637) | SPOT intensity (Bzz1-1, P38822) | SPOT intensity (Bzz1-2, P38822) | SPOT intensity (Cdc25, P04821) | SPOT intensity (Cyk3, Q07533) | SPOT intensity (Fus1, P11710) | SPOT intensity (GST) | SPOT intensity (Hof1, Q05080) | SPOT intensity (Hse1, P38753) | SPOT intensity (Lsb1, P53281) | SPOT intensity (Lsb3, P43603) | SPOT intensity (Lsb4, P32793) | SPOT intensity (Myo3, P36006) | SPOT intensity (Myo5, Q04439) | further results
KRNRLKILLPFLEQS | 64 | 46 | 0 | 0 | 9 | 3 | 8 | 0 | 0 | 28 | 14 | 169 | 5 | 6 | 25 | 34 | 2 | 0 | 10 | 0 | SPOT intensity (Nbp2, Q12163): 22; SPOT intensity (Pex13, P80667): 11; SPOT intensity (Pin3, Q06449): 17; SPOT intensity (Rvs167, P39743): 0; SPOT intensity (Sho1, P40073): 81; SPOT intensity (Sla1-2, P32790): 0; SPOT intensity (Sla1-3, P32790): 49
NGRRRPKFRVQLSGN | 209 | 227 | 0 | 6 | 16 | 5 | 23 | 1 | 0 | 87 | 8 | 75 | 3 | 24 | 53 | 114 | 8 | 9 | 30 | 2 | SPOT intensity (Nbp2, Q12163): 63; SPOT intensity (Pex13, P80667): 5; SPOT intensity (Pin3, Q06449): 11; SPOT intensity (Rvs167, P39743): 0; SPOT intensity (Sho1, P40073): 155; SPOT intensity (Sla1-2, P32790): 5; SPOT intensity (Sla1-3, P32790): 221
RVRKTHVPASKRPSG | 64 | 11 | 0 | 0 | 1 | 1 | 5 | 0 | 0 | 0 | 3 | 5 | 2 | 0 | 2 | 0 | 0 | 1 | 1 | 0 | SPOT intensity (Nbp2, Q12163): 0; SPOT intensity (Pex13, P80667): 0; SPOT intensity (Pin3, Q06449): 1; SPOT intensity (Rvs167, P39743): 0; SPOT intensity (Sho1, P40073): 124; SPOT intensity (Sla1-2, P32790): 1; SPOT intensity (Sla1-3, P32790): 6
YRRKSIPFAPHQITA | 12 | 2 | 0 | 3 | 0 | 1 | 0 | 0 | 5 | 2 | 0 | 2 | 1 | 5 | 9 | 8 | 0 | 2 | 0 | 0 | SPOT intensity (Nbp2, Q12163): 0; SPOT intensity (Pex13, P80667): 10; SPOT intensity (Pin3, Q06449): 9; SPOT intensity (Rvs167, P39743): 0; SPOT intensity (Sho1, P40073): 17; SPOT intensity (Sla1-2, P32790): 0; SPOT intensity (Sla1-3, P32790): 28

Source: paper PMC2756588
